Our source for the stoichiometry N values is article PMC11033290.

The assay has as its target Recombinant M. tuberculosis MDP1 (Mycobacterial DNA-binding protein 1) produced in Mycolicibacterium (Mycobacterium tuberculosis) (UniProt P9WMK7). Kind of assay: cross-linking; glutaraldehyde 0.2%, room temperature, 30 min; 4 µM or 8 µM protein in 150-1500 mM NaCl; SDS-PAGE on a 4-15% gradient gel.

Several values for one entry are separate records, joined by “and”; a condition that tells them apart may be missing. Identical values can stand only once.

In the case of “Recombinant M. tuberculosis MDP1 (Mycobacterial DNA-binding protein 1) produced in Mycolicibacterium (from UniProt P9WMK7 3-216) (natural protein)”, the stoichiometry N is 2 and 3.
